Results on two proteins are retold here after paper PMC10703350, “Fibril structures of TFG protein mutants validate the identification of TFG as a disease-related amyloid protein by the IMPAcT method” (PNAS Nexus, 2023).

Positions count from the first letter of the chain named. Names and notes keep the numbering of the source.

This series concerns the molecule itself. Put plainly: cryo-EM structure; amyloid fibrils of the purified construct (formed at 50 μM in PBS, 37°C, shaking); helical reconstruction in RELION, de novo model of the fibril core.

B1: TFG low-complexity domain (residues 237-327) with the G269V mutation conjugated to mCherry (domain or fragment, human, UniProt Q92734 237-327, looked up)
chain: GQIEGQMYQQYQQQAGYGAQQPQAPPQQPQQYVIQYSASYSQQTGPQQPQQFQGYGQQPTSQAPAPAFSGQPQQLPAQPPQQYQASNYPAQ
notes: TRK-fused gene protein (TFG), human, low-complexity domain residues 237-327 with the disease-related (CMT2) mutation G269V; PDB 8TEQ holds only the ordered fibril core (262-290 and 265-290); also called mC-TFG-LCD-G269V; G269V mutant; source: E. coli BL21(DE3) gold, purified (Ni-NTA, size exclusion chromatography), dialyzed into PBS; not shown: mCherry, N-terminal, kept
Turning to B1, the binding result is given as “binds”.

B2: TFG low-complexity domain (residues 237-327) with the P285L mutation conjugated to mCherry (domain or fragment, human, UniProt Q92734 237-327, looked up)
chain: B1 chain with V33G, P49L
notes: TRK-fused gene protein (TFG), human, low-complexity domain residues 237-327 with the disease-related (HMSN-P) mutation P285L; PDB 8TER holds only the ordered fibril core (265-299); also called mC-TFG-LCD-P285L; P285L mutant; source: E. coli BL21(DE3) gold, purified (Ni-NTA, size exclusion chromatography), dialyzed into PBS; not shown: mCherry, N-terminal, kept
On to B2, for which the binding result is “binds”.
